B1: PR1077 (antibody, V domains shown)
VH: QVQLVESGGGVVQPGRSLRLSCAASGFTFSYYGMHWVRQAPGKGLEWVAVIWYDGSNRFYADSVKGRFTISRDNSKSTLYLQMNSLRAEDTAVYYCATDPPGLRFRFDYWGQGTLVTVSS
VL: not shown
notes: source: HEK 293F or ExpiCHO, transfected, purified (Protein A)
B2: PR953 (antibody, V domains shown)
VH: EVQLQQSGPELVKPGASVKISCKTSGYTFTEYTMHWVKQSHGKSLEWIGGINPNNGDNTYNQKLKGKATLTVHKSSSTAYMELRSLTSEDSAVYYCARDGYPYYYALDYWGQGTSVTVSS
VL: DIVMTQSQKFMSTSVGDRVSVTCKASQNVGTNVAWYQQKPGQSPKPLIYSASSRYSGVPDRFTGSGSGTDFTLTISNVQSEDLAEYFCQQYNNYPWTFGGGTKLEIK
notes: as for B1
B3: PR961 single-chain variable fragment (scFv, V domains shown)
VH: QVQLVQSGAEVKKPGASVKLSCKASGYSFTSYWVNWVRQAPGQGLEWIGMIHPSDSETRLNQKFKDRVTITVDKSTSTAYMELSSLRSEDTAVYYCARADGYEWYFDVWGRGTLVTVSS
VL: DIVLTQSPASLAVSPGQRATITCRASESVDSYGNSFMHWYQQKPGQPPKLLIYRASNLESGIPARFSGSGSGTDFTLTINPVEANDVANYYCQQSNEDPWTFGQGTKVEIK
notes: also called PR961 scFv

Legend:
Details in all cases: both partners purified
[1] = target: recombinant SARS-CoV-2 S1 RBD protein (Severe acute respiratory syndrome …, UniProt P0DTC2); experiment: BLI
[2] = target: recombinant SARS-CoV-2 S1 protein (SARS-CoV-2, wild type (reference), UniProt P0DTC2); experiment: BLI
[3] = target: SARS-CoV-2 spike receptor-binding domain (residues 333 to 530), carboxyl-terminal 8xHis tag (Severe acute respiratory syndrome …, UniProt P0DTC2); experiment: crystal structure

Row | Binder | Kd [1] [nM] | Kd [2] [nM] | binding result [3]
1 | B1 | 2.33 | 0.543 | 
2 | B2 | < 0.001 |  | 
3 | B3 |  |  | binds
